Assay results from patent US6984772.

Tests used:
[1] = target: Plasma derived human fibrinogen (reference protein) (UniProt P02671)
[2] = target: Recombinant human fibrinogen from the milk of transgenic mice (UniProt P02671)

Substance: Human thrombin
- clot formation after thrombin, 4 U/ml, 37 C, 24 hours [1]: Cloudy clot-like precipitates were clearly visible in ... hFIB-spiked NTG (pellet-2)
- clot formation after thrombin, 4 U/ml, 37 C, 24 hours [2]: Cloudy clot-like precipitates were clearly visible in TG (pellet-2)
